From IntAct's records for PubMed 15475008

B1: Calcium and integrin-binding protein 1 (Homo sapiens), Q99828-1 (parent)
chain: MGGSGSRLSKELLAEYQDLTFLTKQEILLAHRRFCELLPQEQRSVESSLRAQVPFEQILSLPELKANPFKERICRVFSTSPAKDSLSFEDFLDLLSVFSDTATPDIKSHYAFRIFDFDDDGTLNREDLSRLVNCLTGEGEDTRLSASEMKQLIDNILEESDIDRDGTINLSEFQHVISRSPDFASSFKIVL

Key:
Conditions in all cases: with psn2_human PSEN2, P49810
[1] = variants of: B1
[2] = variants of: B1; remark: listed apart in the source
[3] = variants of: B1; remark: listed apart in the source

| Variant | effect of a mutation on the interaction [1] | effect of a mutation on the interaction [2] | effect of a mutation on the interaction [3] |
| --- | --- | --- | --- |
| D127N;E172Q | disrupting interaction strength | decreasing interaction | – |
| D127N | disrupting interaction strength | decreasing interaction | – |
| E172Q | disrupting interaction strength | decreasing interaction | decreasing interaction strength |
